# Test results as given in article PMC11969024 (2025).
# B1: peptide HD2 (from tick evasin EVA4) / CCL11 (biotinylated, synthetic) (parent complex)
# chain 1: EEDDYTAYAPLTCYFT
# chain 2: not shown
# Variants of: B1
row,Variant,enrichment
1,chain 1 T12G,-9.29 log2 (difference from the parental peptide)
2,chain 1 T12V,-0.494 log2 (difference from the parental peptide)
3,chain 1 C13P,-6.72 log2 (difference from the parental peptide)
4,chain 1 E1L,-1.42 log2 (difference from the parental peptide)
5,chain 1 F15T,1.13 log2 (difference from the parental peptide)
6,chain 1 T12I,-1.03 log2 (difference from the parental peptide)
7,chain 1 T6W,-0.511 log2 (difference from the parental peptide)
8,chain 1 A7Q,2.3 log2 (difference from the parental peptide)
9,chain 1 A9P,-8.38 log2 (difference from the parental peptide)
10,chain 1 A7H,-0.338 log2 (difference from the parental peptide)
11,chain 1 D4V,-4.79 log2 (difference from the parental peptide)
12,chain 1 C13V,-5.2 log2 (difference from the parental peptide)
13,chain 1 E2K,-3.4 log2 (difference from the parental peptide)
14,chain 1 L11A,-0.668 log2 (difference from the parental peptide)
15,chain 1 D3Y,-0.781 log2 (difference from the parental peptide)
16,chain 1 T6Y,-1.69 log2 (difference from the parental peptide)
17,chain 1 Y5L,-2.37 log2 (difference from the parental peptide)
18,chain 1 E2Q,-1.08 log2 (difference from the parental peptide)
19,chain 1 A9Q,-0.313 log2 (difference from the parental peptide)
20,chain 1 T16N,0.695 log2 (difference from the parental peptide)
21,chain 1 T6R,-0.866 log2 (difference from the parental peptide)
22,chain 1 F15E,0.713 log2 (difference from the parental peptide)
23,chain 1 C13T,-6.48 log2 (difference from the parental peptide)
24,chain 1 D3G,-2.94 log2 (difference from the parental peptide)
25,chain 1 T6V,-3.9 log2 (difference from the parental peptide)

row,Variant,enrichment
1,chain 1 Y8C,-9.26 log2 (difference from the parental peptide)
2,chain 1 D3A,-2.56 log2 (difference from the parental peptide)
3,chain 1 D3Q,-4.56 log2 (difference from the parental peptide)
4,chain 1 T6G,2.76 log2 (difference from the parental peptide)
5,chain 1 F15M,0.54 log2 (difference from the parental peptide)
6,chain 1 Y5E,0.188 log2 (difference from the parental peptide)
7,chain 1 E2N,-2.1 log2 (difference from the parental peptide)
8,chain 1 E1N,-0.236 log2 (difference from the parental peptide)
9,chain 1 E1I,-0.709 log2 (difference from the parental peptide)
10,chain 1 T16E,2.21 log2 (difference from the parental peptide)
11,chain 1 F15L,0.0745 log2 (difference from the parental peptide)
12,chain 1 D3T,-2 log2 (difference from the parental peptide)
13,chain 1 A9W,-5.62 log2 (difference from the parental peptide)
14,chain 1 Y5C,-5.28 log2 (difference from the parental peptide)
15,chain 1 Y14A,-6.29 log2 (difference from the parental peptide)
16,chain 1 Y8I,-9.96 log2 (difference from the parental peptide)
17,chain 1 Y14G,-8.75 log2 (difference from the parental peptide)
18,chain 1 T16G,1.39 log2 (difference from the parental peptide)
19,chain 1 A9I,-10.6 log2 (difference from the parental peptide)
20,chain 1 Y14N,-4.02 log2 (difference from the parental peptide)
21,chain 1 T12E,-1.39 log2 (difference from the parental peptide)
22,chain 1 A9T,-3.11 log2 (difference from the parental peptide)
23,chain 1 A7L,0.532 log2 (difference from the parental peptide)
24,chain 1 E1W,-3.15 log2 (difference from the parental peptide)
25,chain 1 Y14W,-0.519 log2 (difference from the parental peptide)

row,Variant,enrichment
1,chain 1 T12C,-6.12 log2 (difference from the parental peptide)
2,chain 1 A9N,-5.15 log2 (difference from the parental peptide)
3,chain 1 D3K,-4.93 log2 (difference from the parental peptide)
4,chain 1 F15A,0.737 log2 (difference from the parental peptide)
5,chain 1 C13W,-7.9 log2 (difference from the parental peptide)
6,chain 1 Y14C,-5.72 log2 (difference from the parental peptide)
7,chain 1 E2M,-1.91 log2 (difference from the parental peptide)
8,chain 1 A7K,1.27 log2 (difference from the parental peptide)
9,chain 1 P10W,-7.42 log2 (difference from the parental peptide)
10,chain 1 D3F,-1.93 log2 (difference from the parental peptide)
11,chain 1 T12N,-0.967 log2 (difference from the parental peptide)
12,chain 1 A9H,-4.7 log2 (difference from the parental peptide)
13,chain 1 Y14S,-5.39 log2 (difference from the parental peptide)
14,chain 1 T6P,-4.98 log2 (difference from the parental peptide)
15,chain 1 T16I,0.443 log2 (difference from the parental peptide)
16,chain 1 L11F,-0.71 log2 (difference from the parental peptide)
17,chain 1 Y14H,-2.21 log2 (difference from the parental peptide)
18,chain 1 F15Q,-0.31 log2 (difference from the parental peptide)
19,chain 1 T12D,-2.24 log2 (difference from the parental peptide)
20,chain 1 Y14K,-7.74 log2 (difference from the parental peptide)
21,chain 1 C13F,-7.62 log2 (difference from the parental peptide)
22,chain 1 E1D,2.04 log2 (difference from the parental peptide)
23,chain 1 T12R,-3.61 log2 (difference from the parental peptide)
24,chain 1 F15D,-0.00314 log2 (difference from the parental peptide)
25,chain 1 A9F,-8.22 log2 (difference from the parental peptide)
